Source: patent US20260234272A1 (SCHOLAR ROCK, published 2026)

How the values were obtained:
[1] = target: T1, GARP-proTGFβ1 complex (human, UniProt Q14392 20-627; P01137 30-390, limits assumed); test: Octet, yeast expressed IgG1Agly; concentration not shown
T1 construct: In the cell assays GARP was overexpressed from a human plasmid (whole, on cells); also called GARP-TGFβ1

[2] = target: T2, human LTBP1-proTGFβ1 complex (human, UniProt Q14766 347-1721; P01137 30-390); test: Octet binning: 500 nM complex pre-incubated with 1 µM first antibody SR-AB10; competitor: second antibody SR-AB2 on AHC tip
T2 construct: Complex of presenting molecule LTBP1 disulfide-linked to a proTGFβ1 homodimer; also called proTGFβ1:LTBP1 complex; LTBP1-TGFβ1 complex
T2 sequence (Q14766 347-1721 limits assumed, chain 1 of 2): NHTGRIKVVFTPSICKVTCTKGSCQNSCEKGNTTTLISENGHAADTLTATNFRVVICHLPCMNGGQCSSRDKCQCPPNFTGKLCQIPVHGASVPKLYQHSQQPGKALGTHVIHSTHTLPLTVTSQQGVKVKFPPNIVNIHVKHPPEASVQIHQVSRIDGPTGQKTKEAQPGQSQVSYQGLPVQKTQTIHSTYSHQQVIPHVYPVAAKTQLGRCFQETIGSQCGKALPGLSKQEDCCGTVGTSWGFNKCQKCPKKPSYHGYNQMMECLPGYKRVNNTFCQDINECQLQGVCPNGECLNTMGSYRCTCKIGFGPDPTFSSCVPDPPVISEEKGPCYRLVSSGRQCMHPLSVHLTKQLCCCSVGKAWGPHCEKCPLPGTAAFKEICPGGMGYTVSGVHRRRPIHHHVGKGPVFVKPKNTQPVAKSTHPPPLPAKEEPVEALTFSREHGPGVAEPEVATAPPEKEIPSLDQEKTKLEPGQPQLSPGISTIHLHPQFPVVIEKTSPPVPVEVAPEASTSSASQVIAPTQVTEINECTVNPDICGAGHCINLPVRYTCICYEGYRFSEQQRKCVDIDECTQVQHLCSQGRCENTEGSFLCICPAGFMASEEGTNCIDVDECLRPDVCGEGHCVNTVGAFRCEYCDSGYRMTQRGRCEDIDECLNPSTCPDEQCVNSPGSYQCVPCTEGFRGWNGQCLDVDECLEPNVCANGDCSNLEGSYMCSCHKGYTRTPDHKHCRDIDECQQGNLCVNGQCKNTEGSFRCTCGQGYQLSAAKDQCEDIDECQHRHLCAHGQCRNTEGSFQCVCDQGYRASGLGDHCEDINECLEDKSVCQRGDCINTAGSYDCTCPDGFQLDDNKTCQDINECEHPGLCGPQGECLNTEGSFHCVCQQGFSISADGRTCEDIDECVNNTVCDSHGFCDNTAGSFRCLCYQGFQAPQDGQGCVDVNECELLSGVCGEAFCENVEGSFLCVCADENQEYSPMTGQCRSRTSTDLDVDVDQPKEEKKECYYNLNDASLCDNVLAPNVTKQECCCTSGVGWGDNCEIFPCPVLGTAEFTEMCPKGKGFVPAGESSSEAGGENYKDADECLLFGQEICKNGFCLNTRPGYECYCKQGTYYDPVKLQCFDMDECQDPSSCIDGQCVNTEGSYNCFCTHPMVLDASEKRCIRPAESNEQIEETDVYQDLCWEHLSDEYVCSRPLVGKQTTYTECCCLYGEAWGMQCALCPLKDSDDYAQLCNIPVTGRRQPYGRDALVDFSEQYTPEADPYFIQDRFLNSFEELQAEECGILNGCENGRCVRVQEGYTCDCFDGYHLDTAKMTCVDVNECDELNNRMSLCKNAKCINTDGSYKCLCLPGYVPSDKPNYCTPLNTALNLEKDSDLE
T2 sequence (P01137 30-390 limits assumed, chain 2 of 2): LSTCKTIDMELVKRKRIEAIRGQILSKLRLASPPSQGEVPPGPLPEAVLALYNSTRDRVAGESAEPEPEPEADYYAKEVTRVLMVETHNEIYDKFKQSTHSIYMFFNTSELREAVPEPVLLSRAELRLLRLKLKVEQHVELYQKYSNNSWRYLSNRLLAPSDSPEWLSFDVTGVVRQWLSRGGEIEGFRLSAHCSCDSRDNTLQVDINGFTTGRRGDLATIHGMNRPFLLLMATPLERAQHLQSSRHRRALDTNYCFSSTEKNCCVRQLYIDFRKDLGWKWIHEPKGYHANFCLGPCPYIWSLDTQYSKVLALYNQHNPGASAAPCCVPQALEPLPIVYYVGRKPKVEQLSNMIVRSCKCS
Description: (§1) 500 nM of human LTBP1-proTGFβ1 complex was pre-incubated with 1 μM of each test antibody. After an overnight incubation, the LTBP1-[…] first antibody was tested for binding to a second antibody which was immobilized to an Anti-Human IgG Fc Capture (AHC) sensor tip at 67 nM.
(§2) Binding of the complex to a specific second antibody was normalized to the uninhibited interaction, that is the complex in the presence of HuNeg control antibody. Normalized responses less than 70% or 0.7 of the uninhibited interaction were considered antibodies that cross block.

[3] = target: T2, human LTBP1-proTGFβ1 complex; test: Octet binning: 500 nM complex pre-incubated with 1 µM first antibody SR-AB10; competitor: second antibody SR-AB1 on AHC tip
Description: as §1, §2

[4] = target: T2, human LTBP1-proTGFβ1 complex; test: Octet binning: 500 nM complex pre-incubated with 1 µM first antibody SR-AB10; competitor: second antibody SR-AB13 on AHC tip
Description: as §1, §2

[5] = target: T2, human LTBP1-proTGFβ1 complex; test: Octet binning: 500 nM complex pre-incubated with 1 µM first antibody SR-AB10; competitor: second antibody SR-AB10 on AHC tip
Description: as §1, §2

[6] = target: T2, human LTBP1-proTGFβ1 complex; test: Octet binning: 500 nM complex pre-incubated with 1 µM first antibody SR-AB2; competitor: second antibody SR-AB2 on AHC tip
Description: as §1, §2

[7] = target: T2, human LTBP1-proTGFβ1 complex; test: Octet binning: 500 nM complex pre-incubated with 1 µM first antibody SR-AB2; competitor: second antibody SR-AB10 on AHC tip
Description: as §1, §2

[8] = target: T2, human LTBP1-proTGFβ1 complex; test: Octet binning: 500 nM complex pre-incubated with 1 µM first antibody SR-AB2; competitor: second antibody SR-AB13 on AHC tip
Description: as §1, §2

[9] = target: T2, human LTBP1-proTGFβ1 complex; test: Octet binning: 500 nM complex pre-incubated with 1 µM first antibody SR-AB2; competitor: second antibody SR-AB1 on AHC tip
Description: as §1, §2

[10] = target: T2, human LTBP1-proTGFβ1 complex; test: Octet binning: 500 nM complex pre-incubated with 1 µM first antibody SR-AB13; competitor: second antibody SR-AB13 on AHC tip
[11] = target: T2, human LTBP1-proTGFβ1 complex; test: Octet binning: 500 nM complex pre-incubated with 1 µM first antibody SR-AB13; competitor: second antibody SR-AB1 on AHC tip
[12] = target: T2, human LTBP1-proTGFβ1 complex; test: Octet binning: 500 nM complex pre-incubated with 1 µM first antibody SR-AB13; competitor: second antibody SR-AB2 on AHC tip
[13] = target: T2, human LTBP1-proTGFβ1 complex; test: Octet binning: 500 nM complex pre-incubated with 1 µM first antibody SR-AB13; competitor: second antibody SR-AB10 on AHC tip

T1 sequence (Q14392 20-627 limits assumed, chain 1 of 2): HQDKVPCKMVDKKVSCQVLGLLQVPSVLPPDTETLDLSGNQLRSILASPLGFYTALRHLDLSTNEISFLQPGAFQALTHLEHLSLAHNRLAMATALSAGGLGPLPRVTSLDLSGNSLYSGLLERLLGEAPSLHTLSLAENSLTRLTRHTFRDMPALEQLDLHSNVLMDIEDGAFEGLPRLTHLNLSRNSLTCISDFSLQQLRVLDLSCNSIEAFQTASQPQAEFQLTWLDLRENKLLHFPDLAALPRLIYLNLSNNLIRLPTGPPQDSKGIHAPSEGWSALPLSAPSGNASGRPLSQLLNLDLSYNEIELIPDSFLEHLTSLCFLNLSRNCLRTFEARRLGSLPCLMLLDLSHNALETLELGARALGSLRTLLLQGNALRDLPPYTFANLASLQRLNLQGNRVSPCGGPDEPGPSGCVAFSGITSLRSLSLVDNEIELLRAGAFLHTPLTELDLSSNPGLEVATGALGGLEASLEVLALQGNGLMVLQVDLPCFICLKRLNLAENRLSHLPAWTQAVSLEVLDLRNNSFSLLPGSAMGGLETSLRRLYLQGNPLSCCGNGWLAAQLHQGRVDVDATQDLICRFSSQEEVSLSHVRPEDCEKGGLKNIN
T1 sequence (P01137 30-390 limits assumed, chain 2 of 2): as the sequence (P01137 30-390 limits assumed, chain 2 of 2) above

B1: SR-AB10 (antibody, V domains shown)
VH: QLQLQESGGGVVQPGRSLRLSCAASGFTFNNYPIHWVRQAPGKGLEWVAVMSYDGINKYYADSVKGRFTISRDNSKNTLYLQMNSLRAEDTAVYYCARPRIAARRGGFDYWGQGTLVTVSS
VL: NFMLTQPHSVSESPGKTVTISCTRSSGNIDNNYVQWYQQRPGSSPTTVIYEDNQRPSGVPDRFSGSIDSSSNSASLTISGLKTEDEADYYCQSYDSDNQGVVFGGGTKLTVL
Question: Does B1 bind [1]?
Answer: no binding

Question: And the “normalized response (relative to HuNeg control)” value [2]?
Answer: 1.53 fraction of uninhibited interaction

Question: And the “normalized response (relative to HuNeg control)” value [3]?
Answer: 0.82 fraction of uninhibited interaction

Question: And the “normalized response (relative to HuNeg control)” value [4]?
Answer: 1.27 fraction of uninhibited interaction

Question: And the “normalized response (relative to HuNeg control)” value [5]?
Answer: 0.51 fraction of uninhibited interaction

B2: SR-AB2 (antibody, V domains shown)
VH: QVQLVQSGAEVKKPGASVKVSCKASGYTFTSYGISWVRQAPGQGLEWMGWISAYNGNTNYAQKLQGRVTMTTDTSTSTAYMELRSLRSDDTAVYYCARAPLGNFDSWGQGTMVTVSS
VL: NFMLTQPHSVSESPGKTVTISCTRSSGSIASNYVQWYQQRPGSSPTTVIYEDNQRPSGVPDRFSGSIDSSSNSASLTISGLKTEDEADYYCQSYDSSNHPVVFGGGTKLTVL
Question: Which results are given for B2?
Answer: normalized response (relative to HuNeg control) [6]: 0.47 fraction of uninhibited interaction; normalized response (relative to HuNeg control) [7]: 1.54 fraction of uninhibited interaction; normalized response (relative to HuNeg control) [8]: 1.31 fraction of uninhibited interaction; normalized response (relative to HuNeg control) [9]: 1.11 fraction of uninhibited interaction

B3: SR-AB13 (antibody, V domains shown)
VH: QLQLQESGPGLVKPSETLSLTCTVSGGSISSSSYYWGWIRQPPGKGLEWIGSISYSGSTYYNPSLKSRVTISVDTSKNQFSLKLSSVTAADTAVYYCARDPSYDSIAGMDVWGQGTTVTVSS
VL: DIQLTQSPSSLSASVGDRVTITCRASQSISSYLNWYQQKPGKAPKLLIYAASNLQSGVPSRFSGSGSGTDFTLTISSLQPEDFATYYCQQSFDFPFTFGGGTKVEIK
Question: Which results are given for B3?
Answer: normalized response (relative to HuNeg control) [10]: 0.47 fraction of uninhibited interaction; normalized response (relative to HuNeg control) [11]: 1.08 fraction of uninhibited interaction; normalized response (relative to HuNeg control) [12]: 1.29 fraction of uninhibited interaction; normalized response (relative to HuNeg control) [13]: 1.38 fraction of uninhibited interaction
